The data set concerns pCGS206 (luciferase reporter with response elements for the GAL4 DNA binding domain). Nature of the data set: Maize BMS cells bombarded with GAL4 luciferase reporter and receptor vector, GUS-normalized luciferase. It counts as cell-based. Conditions: for Normalized Average (EtOH): unliganded background. How it is done:
Maize BMS (Black Mexican Sweet) cultured cells are transfected with pCGS206 and pCGS208 by high velocity microprojectile bombardment. In addition, an expression plasmid containing the maize ubiquitin promoter driving the expression of β-glucuronidase (GUS) is added to the transfection to serve as an internal control to normalize against variations among the samples.
Transfections are treated and cell lysates are made essentially as described in U.S. Pat. No. 5,880,333. […] Both luciferase and GUS assays are performed with 20 μl of cell lysate for each assay using the Promega Luciferase Kit (Promega cat #E1500) and GUS-Light Kit (Tropix) respectively. Relative light units are determined using a Turner Designs TD 20/20 luminometer.
In addition to tebufenozide, methoxytebufenozide (“MethoxyTeb”) is also capable of inducing gene expression in maize BMS cells. Both pCGS206 and pCGS208 are transfected as described above and methoxytebufenozide is added in place of tebufenozide at 25 μM and 10 μM.
Maize BMS cells are transfected and assayed as in Example 12.
Transformation of maize suspension cells, chemical treatment, and reporter activity assays are performed as described in Example 12. Maize BMS (Black Mexican Sweet) cultured cells are transfected with pCGS206 (pBS-bz1TATA/intronLUC), pCGS203 (G(M)MV), pCGS672 (G(M)MC), and pCGS678 (G(M)MD) by high velocity microprojectile bombardment. In addition, an expression plasmid containing the maize ubiquitin promoter driving the expression of β-glucuronidase (GUS) is added to the transfection to serve as an internal control to normalize against variations among the samples.
Maize BMS cells are bombarded with reporter vector pCGS206 and chimeric receptors and treated with tebufenozide essentially as described in Example 12. Transfections are treated and cell lysates are made essentially as described in U.S. Pat. No. 5,880,333. […] Both luciferase and GUS assays are performed with 20 μl of cell lysate for each assay using the Promega Luciferase Kit (Promega cat #E1500) and GUS-Light Kit (Tropix) respectively. Relative light units (RLU) are determined using a Turner Designs TD 20/20 luminometer.
For orientation: In a reporter assay the amount or activity of a reporter protein is the signal.

[1] abbreviates: Example 24, Experiment 1, 20 μM Teb.
The mark [2] stands for this setting: Example 24, Experiment 1, BMS cells.
The mark [3] stands for this setting: Example 24, Experiment 2, 20 μM Teb.
Where [4] appears, read: Example 24, Experiment 2, BMS cells.
Setting [5] is: Example 26, + 10 μM Teb vs without.
The mark [6] stands for this setting: Example 26, BMS cells, reporter pCGS206, no ligand.
[7] abbreviates: Example 28, BMS cells, reporter pCGS206, no ligand, GUS-normalized.

Results on five molecules are retold here after patent publication US6958236B2, “Control of gene expression in plants” (priority 2000, dated 2005).

Take `COc1cccc(C(=O)NN(C(=O)c2cc(C)cc(C)c2)C(C)(C)C)c1C` [methoxytebufenozide, reference compound]: where the note is “maize BMS cells, methoxytebufenozide 25 μM and 10 μM”, the “average fold activation of the Manduca G(M)MV EcR (ubi/GAL4-MV)” value came out at 25 fold.

B1: G(M)EV: EcR chimera: GAL4 DBD, Manduca sexta D domain, European corn borer E domain, VP16; SEQ ID NO:120-121 (protein)
chain: MQQLYVDFFSPAFIRYLFAWYCFFCRCSPCCLVLLLQGSATMKLLSSIEQACDICRLKKLKCSKEKPKCAKCLKNNWECRYSPKTKRSPLTRAHLTEVESRLERLEQLFLLIFPREDLDMILKMDSLQDIKALLTGLFVQDNVNKDAVTDRLASVETDMPLTLRQHRISATSSSEESSNKGQRQLTVSTRMRPECVVPESTCKNKRREKEAQREKDKLPVSTTTVDDHMPAIMQCDPPPPEAARIHEVVPRFLTEKLMEQNRLKNVTPLSANQKSLIARLVWYQDGYEQPSEEDLKRVTQTWQSADEEDEDSDMPFRQITEMTILTVQLIVEFAKGLPGFSKISQPDQITLLKACSSEVMMLRVARRYDAVSDSVLFANNQAYTRDNYRKAGMAYVIEDLLHFCRCMYSMSMDNVHYALLTAIVIFSDRPGLEQPQLVEEIQRYYLNTLRVYIMNQHSASPRCAVIYAKILSVLTELRTLGMQNSNMCISLKLKNRKLPPFLEEIWDVKLAPPTDVSLGDELHLDGEDVAMAHADALDDFDLDMLGDGDSPGPGFTPHDSAPYGALDMADFEFEQMFTDALGIDEYGG
With B1, the “Fold Induction with Teb Relative to Receptor with EtOH” value is 63 fold under setting [1] and 58 fold under setting [3]. Also, the “Fold Induction with Teb Relative to Reporter with EtOH” value is, setting by setting: under setting [1], 119 fold; under setting [3], 139 fold. Besides, the “Normalized Average (EtOH)” value by setting is: under setting [2], 6.965; under setting [4], 0.028. In addition, the “rank of fold induction among D+E domain combinations” value (Example 24, BMS cells, 20 μM Teb) was “highest fold induction”.

B2: G(M)BV: EcR chimera: GAL4 DBD, Manduca sexta D domain, black cutworm E domain, VP16; SEQ ID NO:118-119 (protein)
chain: MQQLYVDFFSPAFIRYLFAWYCFFCRCSPCCLVLLLQGSATMKLLSSIEQACDICRLKKLKCSKEKPKCAKCLKNNWECRYSPKTKRSPLTRAHLTEVESRLERLEQLFLLIFPREDLDMILKMDSLQDIKALLTGLFVQDNVNKDAVTDRLASVETDMPLTLRQHRISATSSSEESSNKGQRQLTVSTRMRPECVVPESTCKNKRREKEAQREKDKLPVSTTTVDDHMPAIMQCDPPPPEAARIHEVVPRFLTEKLMEQNRLKNVTPLSANQKSLIARLVWYQEGYEQPSEEDLKRVTQTWQSDEDEEESDMPFRQITEMTILTVQLIVEFAKGLPGFAKISQSDQITLLKACSSEVMMLRVARRYDAATDSVLFANNQAYSRDNYRKAGMSYVIEDLLHFCRCMYSMMMDNVHYALLTAIVIFSDRPGLEQPLLVEEIQRYYLNTLRVYILNQNSASPRCPVVFAKILGILTELRTLGMQNSNMCISLKLKNRKLPPFLEEIWDVESRGKLAPPTDVSLGDELHLDGEDVAMAHADALDDFDLDMLGDGDSPGPGFTPHDSAPYGALDMADFEFEQMFTDALGIDEYGG
Regarding B2, the “Fold Induction with Teb Relative to Receptor with EtOH” value by setting is: under setting [1], 34 fold; under setting [3], 26 fold. Further, the “Fold Induction with Teb Relative to Reporter with EtOH” value is 81 fold under setting [1] and 95 fold under setting [3]. The “Normalized Average (EtOH)” value reads like this: under setting [2], 8.701; under setting [4], 1.539.

B3: G(M)FV: EcR chimera: GAL4 DBD, Manduca sexta D domain, fall armyworm E domain, VP16; SEQ ID NO:122-123 (protein)
chain: MQQLYVDFFSPAFIRYLFAWYCFFCRCSPCCLVLLLQGSATMKLLSSIEQACDICRLKKLKCSKEKPKCAKCLKNNWECRYSPKTKRSPLTRAHLTEVESRLERLEQLFLLIFPREDLDMILKMDSLQDIKALLTGLFVQDNVNKDAVTDRLASVETDMPLTLRQHRISATSSSEESSNKGQRQLTVSTRMRPECVVPESTCKNKRREKEAQREKDKLPVSTTTVDDHMPAIMQCDPPPPEAARIHEVVPRFLTEKLMEQNRLKNVTPLSANQKSLIARLVWYQEGYEQPSEEDLKRVTQTWQLEEEEEEETDMPFRQITEMTILTVQLIVEFAKGLPGFSKISQSDQITLLKASSSEVMMLRVARRYDAATDSVLFANNQAYTRDNYRKAGMSYVIGDLLHFCRCMYSMSMDNVHYALLTAIVIFSDRPGLEQPLLVEEIQRYYLKTLRVYILNQYSASPRCAVLFGKILGVLTELRTLGTQNSNMCISLKLKNRKLPPFLEEIWDVKLAPPTDVSLGDELHLDGEDVAMAHADALDDFDLDMLGDGDSPGPGFTPHDSAPYGALDMADFEFEQMFTDALGIDEYGG
Consider B3, for which the “Fold Induction with Teb Relative to Receptor with EtOH” value reads like this: under setting [1], 51 fold; under setting [3], 24 fold. Further, the “Fold Induction with Teb Relative to Reporter with EtOH” value was 52 fold under setting [1] and 57 fold under setting [3]. For the same molecule, the “Normalized Average (EtOH)” value is, setting by setting: under setting [2], 3.766; under setting [4], 0.484.

B4: G(M)MV: EcR chimera: GAL4 DNA binding domain, Manduca sexta D and E domains, VP16; SEQ ID NO:104-105 (protein)
chain: MKLLSSIEQACDICRLKKLKCSKEKPKCAKCLKNNWECRYSPKTKRSPLTRAHLTEVESRLERLEQLFLLIFPREDLDMILKMDSLQDIKALLTGLFVQDNVNKDAVTDRLASVETDMPLTLRQHRISATSSSEESSNKGQRQLTVSTRMRPECVVPESTCKNKRREKEAQREKDKLPVSTTTVDDHMPAIMQCDPPPPEAARIHEVVPRFLTEKLMEQNRLKNVTPLSANQKSLIARLVWYQEGYEQPSEEDLKRVTQTWQLEEEEEEETDMPFRQITEMTILTVQLIVEFAKGLPGFSKISQSDQITLLKASSSEVMMLRVARRYDAATDSVLFANNQAYTRDNYRKAGMSYVIEDLLHFCRCMYSMSMDNVHYALLTAIVIFSDRPGLEQPLLVEEIQRYYLKTLRVYILNQHSASPRCAVLFGKILGVLTELRTLGTQNSNMCISLKLKNRKLPPFLEEIWDVAEVSTTKLAPPTDVSLGDELHLDGEDVAMAHADALDDFDLDMLGDGDSPGPGFTPHDSAPYGALDMADFEFEQMFTDALGIDEYGG
modifications: (1)..(3972) GAL4-Manduca EcR-VP16 fragment in pCGS202
For B4, under setting [1], the “Fold Induction with Teb Relative to Receptor with EtOH” value amounted to 44 fold and the “Fold Induction with Teb Relative to Reporter with EtOH” value is reported as 83 fold. For the same molecule, under setting [2], the “Normalized Average (EtOH)” value came out at 6.889. Besides, under setting [3], the “Fold Induction with Teb Relative to Receptor with EtOH” value worked out at 15 fold and the “Fold Induction with Teb Relative to Reporter with EtOH” value turned out to be 61 fold. Moreover, the “Normalized Average (EtOH)” value under setting [4] is on record as 1.721. Further, under “Example 26, + 10 μM Teb”, the “Experiment #1 Luciferase” value was found to be 99.49 and the “Experiment #2 Luciferase” value is listed as 136.41. Further, under setting [5], the “Experiment #1 Fold Induction” value came to 16.7 fold and the “Experiment #2 Fold Induction” value came to 35.1 fold. Moreover, under setting [6], the “Experiment #1 Luciferase” value is listed as 5.97 and the “Experiment #2 Luciferase” value came to 3.89. Besides, under setting [7], the “Experiment #1 RLU” value was determined as 3.73 RLU and the “Experiment #2 RLU” value stood at 3.17 RLU. The “average fold induction with tebufenozide” value (maize BMS cells, 10 μM tebufenozide, average of assays) stood at 36 fold.
